{"source": "patent US20110124071A1", "about": "“METHODS AND COMPOSITIONS FOR PRODUCING HYDROCARBONS” (priority 2009, published 2011)", "molecules": {"B1": {"name": "PMM0533: Prochlorococcus marinus CCMP1986 putative aldehyde-generating enzyme (SEQ ID NO: 72) (protein, listed as Prochlorococcus marinus)", "chain": "MFGLIGHSTSFEDAKRKASLLGFDHIADGDLDVWCTAPPQLVENVEVKSAIGISIEGSYIDSCFVPEMLSRFKTARRKVLNAMELAQKKGINITALGGFTSIIFENFNLLQHKQIRNTSLEWERFTTGNTHTAWVICRQLEMNAPKIGIDLKSATVAVVGATGDIGSAVCRWLINKTGIGELLLVARQKEPLDSLQKELDGGTIKNLDEALPEADIVVWVASMPKTMEIDANNLKQPCLMIDGGYPKNLDEKFQGNNIHVVKGGIVRFFNDIGWNMMELAEMQNPQREMFACFAEAMILEFEKCHTNFSWGRNNISLEKMEFIGAASVKHGFSAIGLDKHPKVLAV"}, "B2": {"name": "ATCC51142 cce—1430: Cyanothece sp. ATCC51142 putative aldehyde-generating enzyme, Acyl-ACP reductase (SEQ ID NO: 70) (protein, listed as Cyanothece sp.)", "chain": "MFGLIGHLTSLEHAHSVADAFGYGPYATQGLDLWCSAPPQFVEHFHVTSITGQTIEGKYIESAFLPEMLIKRRIKAAIRKILNAMAFAQKNNLNITALGGFSSIIFEEFNLKENRQVRNVSLEFDRFTTGNTHTAYIICRQVEQASAKLGIDLSQATVAICGATGDIGSAVCRWLDRKTDTQELFLIARNKERLQRLQDELGRGKIMGLEEALPEADIIVWVASMPKGVEINAETLKKPCLIIDGGYPKNLDTKIKHPDVHILKGGIVEHSLDIDWKIMETVNMDVPSRQMFACFAEAILLEFEQWHTNFSWGRNQITVTKMEQIGEASVKHGLQPLLSW"}, "B3": {"name": "PCC7942_orf1594 protein (Synechococcus elongatus PCC 7942 = FACHB-805) (protein)", "chain": "MFGLIGHLTSLEQARDVSRRMGYDEYADQGLEFWSSAPPQIVDEITVTSATGKVIHGRYIESCFLPEMLAARRFKTATRKVLNAMSHAQKHGIDISALGGFTSIIFENFDLASLRQVRDTTLEFERFTTGNTHTAYVICRQVEAAAKTLGIDITQATVAVVGATGDIGSAVCRWLDLKLGVGDLILTARNQERLDNLQAELGRGKILPLEAALPEADFIVWVASMPQGVVIDPATLKQPCVLIDGGYPKNLGSKVQGEGIYVLNGGVVEHCFDIDWQIMSAAEMARPERQMFACFAEAMLLEFEGWHTNFSWGRNQITIEKMEAIGEASVRHGFQPLALAI", "notes": "His-tag (C); made in house; host or cells: E. coli BL21 (DE3)"}, "B4": {"name": "octadecenoyl-ACP (conjugate, UniProt Q31QV1 1-80, looked up)", "Acyl carrier protein": "MSQEDIFSKVKDIVAEQLSVDVAEVKPESSFQNDLGADSLDTVELVMALEEAFDIEIPDEAAEGIATVQDAVDFIASKAA", "modifications": "octadecenoyl acyl thioester", "notes": "acyl-ACP (acyl carrier protein) substrate of PCC7942_orf1594 reductase"}}, "key": {"PCC7942_orf1594 protein": {"biological_target": "T1, PCC7942_orf1594 protein (Synechococcus elongatus, UniProt Q54765)", "T1 construct": "His-tag (C); made in house; host or cells: E. coli BL21 (DE3)", "T1 sequence (Q54765 1-341)": "B3 chain", "assay": "acyl-ACP or acyl-CoA reductase enzyme assay, GC/MS", "format": "biochemical", "description": "(§1) The genomic DNA encoding S. elongatus PCC7492 orf1594 (SEQ ID NO: 66) was cloned into the NcoI and XhoI sites of vector pET-28b under the control of the T7 promoter. The resulting PCC7942_orf1594 protein contained a C-terminal His-tag. An E. coli BL21 strain (DE3) (Invitrogen) was transformed with the plasmid and PCC7942_orf1594 protein was expressed and purified as described in Example 22. The protein solution was stored in the following buffer: 50 mM sodium phosphate, pH 7.5, 100 mM NaCl, 1 mM THP, 10% glycerol. Protein concentration was determined using the Bradford assay (Bio-Rad). 2 mg/ml of PCC7942 orf1594 protein was obtained.\n(§2) To test PCC7942_orf1594 protein for acyl-ACP or acyl-CoA reductase activity, the following enzyme assays were set-up. 100 μl reactions were set-up in 50 mM Tris-HCl buffer at pH 7.5 with the following components at their respective final concentrations: 10 μM of purified PCC7942_orf1594 protein, 0.01-1 mM acyl-CoA or acyl-ACP, 2 mM MgCl2, 0.2-2 mM NADPH. The reactions were incubated for 1 h at 37° C. and where stopped by adding 100 μl ethyl acetate (containing 5 mg/l 1-octadecene as internal standard). Samples were vortexed for 15 min and centrifuged at max speed for 3 min for phase separation. 80 μl of the top layer were transferred into GC glass vials and analyzed by GC/MS as described in Example 26. The amount of aldehyde formed was calculated based on the internal standard."}, "[1]": {"test_system": "T2, Prochlorococcus marinus CCMP1986 PMM0532 (NP-892650; putative decarbonylase)", "T2 sequence": "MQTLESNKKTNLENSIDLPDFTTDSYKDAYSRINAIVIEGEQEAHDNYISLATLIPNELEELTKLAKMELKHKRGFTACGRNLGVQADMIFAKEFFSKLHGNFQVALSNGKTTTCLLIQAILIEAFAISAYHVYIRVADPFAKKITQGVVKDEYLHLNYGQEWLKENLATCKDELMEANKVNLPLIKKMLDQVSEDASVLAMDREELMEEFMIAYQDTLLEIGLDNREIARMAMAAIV"}, "E. coli MG1655": {"test_system": "E. coli MG1655", "assay": "Heterologous expression of putative aldehyde-generating enzyme alone in E. coli, GC-MS of extracts", "format": "cell-based", "conditions": "enzyme expressed alone in E. coli MG1655, M9 minimal media, 37° C.", "description": "The genomic DNA encoding Synechococcus elongatus PCC7942 orf1594 (YP—400611; putative aldehyde-generating enzyme) (SEQ ID NO: 65) was amplified and cloned into the NcoI and EcoRI sites of vector OP-80 (pCL1920 derivative) under the control of the Ptrc promoter. The resulting construct (“OP80-PCC7942—1594”) was transformed into E. coli MG1655 and the cells were grown at 37° C. in M9 minimal media with 1% (w/v) glucose as carbon source and supplemented with 100 μg/ml spectinomycin. When the culture reached OD600 of 0.8-1.0, it was induced with 1 mM IPTG and cells were grown for an additional 18-20 h at 37° C. Cells from 0.5 ml of culture were extracted with 0.5 ml of ethyl acetate. After sonication for 60 min, the sample was centrifuged at 15,000 rpm for 5 min. The solvent layer was analyzed by GC-MS as described in Example 1.\nThe genomic DNA encoding Cyanothece sp. ATCC51142 cce—1430 (YP—001802846; putative aldehyde-generating enzyme) (SEQ ID NO: 70) was amplified and cloned into the NcoI and EcoRI sites of vector OP-80 (pCL1920 derivative) under the control of the Ptrc promoter. The resulting construct was transformed into E. coli MG1655 and the cells were grown at 37° C. in M9 minimal media with 1% (w/v) glucose as carbon source and supplemented with 100 μg/ml spectinomycin. The cells were cultured and extracted as in Example 3 and analyzed by GC-MS as described in Example 26.\nThe genomic DNA encoding P. mariunus CCMP1986 PMM0533 (NP_892651; putative aldehyde-generating enzyme) (SEQ ID NO: 72) and Prochlorococcus mariunus CCMP1986 PMM0532 (NP_892650; putative decarbonylase) (SEQ ID NO: 19) were amplified and cloned into the NcoI and EcoRI sites of vector OP-80 and the NdeI and XhoI sites of vector OP-183, respectively. The resulting constructs were separately transformed and cotransformed into E. coli MG1655 and the cells were grown at 37° C. in M9 minimal media supplemented with 100 μg/ml spectinomycin and 100 μg/ml carbenicillin. The cells were cultured and extracted as in Example 3 and analyzed by GC-MS as described in Example 26."}, "[2]": {"test_system": "E. coli MG1655 ΔfadE lacZ::Ptrc ′tesA-fadD", "assay": "Heterologous expression in a fatty acyl-CoA-producing E. coli strain, GC-MS", "format": "cell-based", "conditions": "reductase coexpressed with a fatty aldehyde decarbonylase", "source_text": "The genomic DNA encoding Acaryochloris marina MBIC11017 AM1—4041 (YP—001518340; putative fatty aldehyde decarbonylase) (SEQ ID NO: 9) was synthesized and cloned into the NdeI and XhoI sites of vector OP-183 (pACYC derivative) under the control of the Ptrc promoter. The resulting construct was cotransformed with OP80-PCC7942—1594 into E. coli MG1655 ΔfadE lacZ::Ptrc ′tesA-fadD. This strain expresses a cytoplasmic version of the E. coli thioesterase, ′TesA, and the E. coli acyl-CoA synthetase, FadD, under the control of the Ptrc promoter, and therefore produces fatty acyl-CoAs. The cells were grown at 37° C. in M9 minimal media supplemented with 100 μg/ml spectinomycin and 100 μg/ml carbenicillin. The cells were cultured and extracted as in Example 3 and analyzed by GC-MS as described in Example 1.\nThe genomic DNA encoding Synechocystis sp. PCC6803 sll0208 (NP_442147; putative fatty aldehyde decarbonylase) (SEQ ID NO: 3) was synthesized and cloned into the NdeI and XhoI sites of vector OP-183 (pACYC derivative) under the control of the Ptrc promoter. The genomic DNA encoding Synechocystis sp. PCC6803 sll0209 (NP_442146; acyl-ACP reductase) (SEQ ID NO: 68) was synthesized and cloned into the NcoI and EcoRI sites of vector OP-183 (pACYC derivative) under the control of the Ptrc promoter. The resulting constructs were cotransformed with into E. coli MG1655 ΔfadE lacZ::Ptrc ′tesA-fadD. This strain expresses a cytoplasmic version of the E. coli thioesterase, ′TesA, and the E. coli acyl-CoA synthetase, FadD, under the control of the Ptrc promoter, and therefore produces fatty acyl-CoAs. The cells were grown at 37° C. in M9 minimal media supplemented with 100 μg/ml spectinomycin and 100 μg/ml carbenicillin. The cells were cultured and extracted as in Example 3 and analyzed by GC-MS as described in Example 26."}, "[3]": {"substrate": "CCCCCCCCCCCCCCCCCC(=O)SCCNC(=O)CCNC(=O)[C@H](O)C(C)(C)COP(=O)(O)OP(=O)(O)OC[C@H]1O[C@@H](n2cnc3c(N)ncnc32)[C@H](O)[C@@H]1OP(=O)(O)O", "assay": "acyl-ACP or acyl-CoA reductase enzyme assay, GC/MS", "format": "biochemical", "conditions": "other: in the presence of 2 mM NADPH; pH 7.5; 37.0 °C", "description": "as §1\nas §2, with “Samples were vortexed for 15 min and centrifuged at max speed for 3 min for phase separation.” left out"}, "[4]": {"conditions": "in the presence of 2 mM NADPH, read-out: Km for the reduction by PCC7942_orf1594"}}, "note": "Read-outs that look alike come from different tables or passages of the source.", "data": [{"molecule": "NC(=O)C1=CN([C@@H]2O[C@H](COP(=O)(O)OP(=O)(O)OC[C@H]3O[C@@H](n4cnc5c(N)ncnc54)[C@H](OP(=O)(O)O)[C@@H]3O)[C@@H](O)[C@H]2O)C=CC1", "note": "[NADPH]", "values": [{"measurement": "Km", "setting": "PCC7942_orf1594 protein; in the presence of 0.5 mM octadecanoyl-CoA, read-out: Km value for NADPH for PCC7942_orf1594", "value": "400 ± 80", "unit": "µM"}]}, {"molecule": "octadecenoyl-CoA", "values": [{"measurement": "Km", "setting": "PCC7942_orf1594 protein; [4]", "value": "82 ± 22", "unit": "µM"}]}, {"molecule": "Prochlorococcus marinus CCMP1986 PMM0533 (NP-892651; putative aldehyde-generating enzyme)", "values": [{"measurement": "fatty alcohol, alkane and alkene production (GC/MS) in E. coli MG1655, PMM0533 alone against PMM0533 coexpressed with PMM0532", "setting": "[1]", "value": "E. coli cells transformed with only the P. mariunus CCMP1986 PMM0533-bearing vector did not produce any fatty aldehydes or fatty alcohols. However, E. coli cells cotransformed with PMM0533 and PMM0532-bearing vectors produced hexadecanol, pentadecane and heptadecene"}]}, {"molecule": "NC(=O)C1=CN([C@@H]2O[C@H](COP(=O)(O)OP(=O)(O)OC[C@H]3O[C@@H](n4cnc5c(N)ncnc54)[C@H](O)[C@@H]3O)[C@@H](O)[C@H]2O)C=CC1", "note": "[NADH]", "values": [{"measurement": "support of reductase activity as electron donor", "setting": "PCC7942_orf1594 protein; reduction of octadecanoyl-CoA to octadecanal", "value": "did not support reductase activity"}]}, {"molecule": "B1", "values": [{"measurement": "production of fatty aldehydes and fatty alcohols", "setting": "E. coli MG1655", "value": "did not produce any fatty aldehydes or fatty alcohols"}]}, {"molecule": "B2", "values": [{"measurement": "production of fatty aldehydes and fatty alcohols", "setting": "E. coli MG1655", "value": "generates aldehydes in vivo"}]}, {"molecule": "B3", "values": [{"measurement": "use of acyl-CoA as substrate to produce fatty aldehydes", "setting": "[2]", "value": "able to use acyl-CoA as a substrate"}, {"measurement": "Km", "setting": "[3]", "value": "45 ± 20", "unit": "µM"}, {"measurement": "Km for the reduction of octadecenoyl-ACP in the presence of 2 mM NADPH (in vitro reductase assay, GC/MS)", "setting": "octadecenoyl-ACP", "value": "7.8 ± 2", "unit": "µM"}, {"measurement": "production of fatty aldehydes and fatty alcohols", "setting": "E. coli MG1655", "value": "generates aldehydes in vivo"}]}, {"molecule": "B4", "values": [{"measurement": "Km", "setting": "PCC7942_orf1594 protein; [4]", "value": "7.8 ± 2", "unit": "µM"}]}]}
